For assay [1], the target named is T1, recombinant soluble human IL-6 receptor (SR344) (human, UniProt P08887 20-344, biotinylated (sites not given) where immobilized via streptavidin or used in phage ELISA).
T1 construct: also called soluble IL-6 receptor; membrane-type IL-6 receptor (when biotinylated and immobilized on the chip)
T1 sequence (looked up): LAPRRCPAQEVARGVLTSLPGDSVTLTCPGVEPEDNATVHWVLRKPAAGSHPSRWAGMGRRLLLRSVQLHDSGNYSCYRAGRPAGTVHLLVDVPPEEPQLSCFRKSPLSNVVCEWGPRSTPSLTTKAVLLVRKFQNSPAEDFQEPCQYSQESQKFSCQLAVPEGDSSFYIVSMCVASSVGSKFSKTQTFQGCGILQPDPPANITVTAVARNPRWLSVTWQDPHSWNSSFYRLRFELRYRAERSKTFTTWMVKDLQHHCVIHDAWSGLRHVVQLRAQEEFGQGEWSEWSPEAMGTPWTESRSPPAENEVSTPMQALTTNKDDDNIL
Description: SPR Biacore T100, biotinylated SR344 on streptavidin chip (model of membrane-type IL-6 receptor), antibody 0.25 ug/mL as analyte, bound at pH 7.4, dissociation at pH 7.4, 37 C. (Surface plasmon resonance follows binding to a sensor surface in real time, without labels.)

For assay [2], the target named is T1, recombinant soluble human IL-6 receptor …. Description: SPR Biacore T100, antibody on protein A/G chip, SR344 analyte, 37 C, ratio of pH 5.8 to pH 7.4. The procedure: (§1) Kinetic analysis of antigen-antibody reactions at pH 7.4 and pH 5.8 was carried out using a Biacore T100™ surface plasmon resonance system (GE Healthcare) for the four types of antibodies prepared: WT-IgG1, H54/L28-IgG1, H170/L82-IgG1, and Fv4-IgG1 (buffer: 10 mM MES (pH 7.4 or pH 5.8), 150 mM NaCl, 0.05% Surfactant P20 (polyoxyethelene sorbitan monolaurate)). The antibodies were bound to a sensor chip on which recomb-protein A/G (Pierce) was immobilized by amine coupling, and SR344 adjusted to an appropriate concentration was injected therein as an analyte. The association with and dissociation from SR344 of each type of antibody were observed on a real-time basis. All the measurements were carried out at 37° C. Association rate constants kₐ (1/Ms) and dissociation rate constants kd (1/s) were calculated using Biacore T100™ Evaluation Software (GE Healthcare), and dissociation constants KD (M) were calculated based on those values (Table 17).

For assay [3] the target is unchanged. As to the kind of experiment: SPR Biacore T100, antibody on protein A/G chip, SR344 analyte, pH 7.4, 37 C. The procedure: as §1
For assay [4] the target is unchanged. Description: SPR Biacore T100, antibody on protein A/G chip, SR344 analyte, pH 5.8, 37 C. The procedure: as §1
Assay [5] has the same target. As to the kind of experiment: SPR Biacore T100, biotinylated SR344 on streptavidin chip (model of membrane-type IL-6 receptor), antibody 0.25 ug/mL as analyte, 37 C. The protocol:
Binding to the membrane-type IL-6 receptor was evaluated by evaluating binding to the IL-6 receptor immobilized on a sensor chip. SR344 was biotinylated in accordance with a method known among persons with ordinary skill in the art, and the biotinylated SR344 was immobilized on the sensor chip via streptavidin using the affinity between streptavidin and biotin. All the measurements were carried out at 37° C. The mobile phase buffer was 10 mM MES (pH 5.8), 150 mM NaCl and 0.05% TWEEN® 20 (polyoxyethelene sorbitan monolaurate).
The pH-dependently-binding clones were injected under the condition of pH 7.4 to allow them to bind to SR344, and then, the pH-dependent dissociation of each clone at the pH of the mobile phase, pH 5.8, was observed. The results are shown in FIG. 21 (results for Fv1-M71, Fv1-M73, Fv3-M71, and Fv3-M73 are shown in FIG. 21, while results for other clones are shown in FIGS. 17 and 19). Analyses were carried out in the same manner as in Example 10 and the pH dependencies of the dissociation rate constants of all of the eleven types of clones are shown in Table 12.

For assay [6] the target is unchanged. As to the kind of experiment: SPR Biacore T100, biotinylated SR344 on streptavidin chip (model of membrane IL-6 receptor), antibody 0.5 ug/mL as analyte, 37 C. The protocol:
The binding to membrane IL-6 receptor was evaluated by evaluating the binding to the IL-6 receptor immobilized onto a sensor chip. SR344 was biotinylated according to a method known to persons skilled in the art, and the biotinylated SR344 was immobilized on the sensor chip via streptavidin by utilizing the affinity between streptavidin and biotin. All the measurements were carried out at 37° C., and the mobile phase buffer contained 10 mM MES (pH 5.8), 150 mM NaCl and 0.05% TWEEN® 20 (polyoxyethelene sorbitan monolaurate). The pH-dependent binding clones were injected therein under the condition of pH 7.4 and allowed to bind to SR344 (injection sample buffer: 10 mM MES (pH 7.4), 150 mM NaCl, 0.05% TWEEN® 20 (polyoxyethelene sorbitan monolaurate)), and the pH-dependent dissociation of each clone at the mobile phase pH of 5.8 was observed (FIG. 10).
The dissociation rate […]) at pH 5.8 was calculated using Biacore T100™ Evaluation Software (GE Healthcare) by fitting only the dissociation phase at pH 5.8, where 0.5 μg/mL of the sample was bound in 10 mM MES (pH 7.4), 150 mM NaCl, and 0.05% TWEEN® 20 (polyoxyethelene sorbitan monolaurate), and dissociated in 10 mM MES (pH 5.8), 150 mM NaCl, and 0.05% TWEEN® 20 (polyoxyethelene sorbitan monolaurate). Similarly, the dissociation rate (kd(1/s)) at pH 7.4 was calculated using Biacore T100™ Evaluation Software (GE Healthcare) by fitting only the dissociation phase at pH 7.4, where 0.5 μg/mL of the sample was bound in 10 mM MES (pH 7.4), 150 mM NaCl, and 0.05% TWEEN® 20 (polyoxyethelene sorbitan monolaurate), and dissociated in 10 mM MES (pH 7.4), 150 mM NaCl, and 0.05% TWEEN® 20 (polyoxyethelene sorbitan monolaurate).

The results in this text go back to patent US20180282719A1 (published 2018).

B1: Fv4-IgG1 (antibody)
heavy: not shown
light: DIQMTQSPSSLSASVGDSVTITCQASTDISSHLNWYQQKPGKAPELLIYYGSHLLSGVPSRFSGSGSGTDFTFTISSLEAEDAATYYCGQGNRLPYTFGQGTKVEIERTVAAPSVFIFPPSDEQLKSGTASVVCLLNNFYPREAKVQWKVDNALQSGNSQESVTEQDSKDSTYSLSSTLTLSKADYEKHKVYACEVTHQGLSSPVTKSFNRGEC
notes: VH3-IgG1 / VL3-CK
One may read the koff as the rate constant with which the complex falls apart. As usually defined, the Kd is the constant that tells how readily two partners part at equilibrium. By kon is commonly meant a measure of how fast the partners come together. As for B1, the koff in assay [1] is 0.00047 s⁻¹. Besides, in assay [2], the “KD (pH 5.8)/KD (pH 7.4)” value worked out at 27.3 and the “kd (pH 5.8)/kd (pH 7.4)” value turned out to be 38.8. For the same molecule, in assay [3], the Kd was determined as 0.97 nM, the koff stood at 0.00095 s⁻¹ and the kon was 980000 M⁻¹ s⁻¹. Also, in assay [4], the Kd came out at 26 nM, the koff amounted to 0.037 s⁻¹ and the kon stood at 1.4e+06 M⁻¹ s⁻¹. Moreover, in assay [5], the “kd (pH 5.8)/kd (pH 7.4)” value was determined as 5.56.

B2: H3pI/L73 (antibody, IgG1, V domains shown)
VH: QVQLQESGPGLVKPSETLSLTCAVSGHSISHDHAHSWVRQPPGEGLEWIGYISYSGITNYNPSLKGRVTISRDTSKNQFSLKLSSVTAADTAAYYCARSLARTTAMDYWGEGTLVTVSS
VL: DIQMTQSPSSLSASVGDSVTITCQASQHISSHLNWYQQKPGKAPELLIYYGSHLHSGVPSRFSGSGSGTDFTFTISSLEAEDAATYYCGQGNRLPYTFGQGTKVEIE
notes: tested as IgG1; also called H3pI/L73-IgG1; H3pl/L73
In the case of B2, the “kd ratio pH 5.8/pH 7.4” value in assay [6] was found to be 11. Also, the koff in assay [1] came out at 0.00026 s⁻¹. In addition, the “kd (pH 5.8)/kd (pH 7.4)” value in assay [5] was determined as 2.59.

B3: H170/L82 (antibody, IgG1, V domains shown)
VH: QVQLQESGPGLVKPSETLSLTCAVSGHSISHHHAHSWVRQPPGEGLEWIGYISYSGITHYNPHLKGRVTISRDTSKNQFSLKLSSVTAADTAAYYCARVLARITAMDHWGEGTLVTVSS
VL: DIQMTQSPSSLSASVGDSVTITCQASQDISSHLNWYQQKPGKAPELLIYYGSHLHSGVPSRFSGSGSGTDFTFTISSLEAEDAATYYCGQGNRLPYTFGQGTKVEIE
notes: expressed and purified as IgG (IgG1); also called H170/L82-IgG1
In the case of B3, the “kd ratio pH 5.8/pH 7.4” value in assay [6] is 1.9. Moreover, in assay [2], the “KD (pH 5.8)/KD (pH 7.4)” value came out at 61.9 and the “kd (pH 5.8)/kd (pH 7.4)” value is 11.4. Besides, in assay [3], the Kd is 1.6 nM, the koff was 0.0011 s⁻¹ and the on-rate (kon) was determined as 670000 M⁻¹ s⁻¹. Moreover, in assay [4], the Kd is 100 nM, the koff stood at 0.013 s⁻¹ and the kon was determined as 120000 M⁻¹ s⁻¹.

B4: humanized PM1 antibody (wild type, WT) (antibody, human IgG1, kappa, V domains shown)
VH: QVQLQESGPGLVRPSQTLSLTCTVSGYSITSDHAWSWVRQPPGRGLEWIGYISYSGITTYNPSLKSRVTMLRDTSKNQFSLRLSSVTAADTAVYYCARSLARTTAMDYWGQGSLVTVSS
VL: DIQMTQSPSSLSASVGDRVTITCRASQDISSYLNWYQQKPGKAPKLLIYYTSRLHSGVPSRFSGSGSGTDFTFTISSLQPEDIATYYCQQGNTLPYTFGQGTKVEIKR
notes: IgG1; also called WT-IgG1; wild type humanized anti-IL-6 receptor antibody
On to B4, for which the “kd ratio pH 5.8/pH 7.4” value in assay [6] amounted to 1.5. In addition, the results for the koff in assay [1], in assay [3] and in assay [4] were 0.00025 s⁻¹, 0.00094 s⁻¹ and 0.0027 s⁻¹, respectively. Moreover, in assay [2], the “KD (pH 5.8)/KD (pH 7.4)” value is 1.6. For the same molecule, the results for the “kd (pH 5.8)/kd (pH 7.4)” value in assay [2] and in assay [5] were 2.9 and 1, respectively. Further, the Kd in assay [3] worked out at 1.9 nM; in assay [4], 3.1 nM. Further, the kon in assay [3] was determined as 490000 M⁻¹ s⁻¹; in assay [4], 890000 M⁻¹ s⁻¹.
